From US20260275312, “CRISPR NUCLEASE POLYPEPTIDES AND GENE EDITING SYSTEMS COMPRISING SUCH” (ARBOR BIOTECHNOLOGIES, INC., published 2026)

Target: T1, Nuclease H T783R/E43R/A170R (synthetic construct, T783R,E43R,A170R)
T1 chain: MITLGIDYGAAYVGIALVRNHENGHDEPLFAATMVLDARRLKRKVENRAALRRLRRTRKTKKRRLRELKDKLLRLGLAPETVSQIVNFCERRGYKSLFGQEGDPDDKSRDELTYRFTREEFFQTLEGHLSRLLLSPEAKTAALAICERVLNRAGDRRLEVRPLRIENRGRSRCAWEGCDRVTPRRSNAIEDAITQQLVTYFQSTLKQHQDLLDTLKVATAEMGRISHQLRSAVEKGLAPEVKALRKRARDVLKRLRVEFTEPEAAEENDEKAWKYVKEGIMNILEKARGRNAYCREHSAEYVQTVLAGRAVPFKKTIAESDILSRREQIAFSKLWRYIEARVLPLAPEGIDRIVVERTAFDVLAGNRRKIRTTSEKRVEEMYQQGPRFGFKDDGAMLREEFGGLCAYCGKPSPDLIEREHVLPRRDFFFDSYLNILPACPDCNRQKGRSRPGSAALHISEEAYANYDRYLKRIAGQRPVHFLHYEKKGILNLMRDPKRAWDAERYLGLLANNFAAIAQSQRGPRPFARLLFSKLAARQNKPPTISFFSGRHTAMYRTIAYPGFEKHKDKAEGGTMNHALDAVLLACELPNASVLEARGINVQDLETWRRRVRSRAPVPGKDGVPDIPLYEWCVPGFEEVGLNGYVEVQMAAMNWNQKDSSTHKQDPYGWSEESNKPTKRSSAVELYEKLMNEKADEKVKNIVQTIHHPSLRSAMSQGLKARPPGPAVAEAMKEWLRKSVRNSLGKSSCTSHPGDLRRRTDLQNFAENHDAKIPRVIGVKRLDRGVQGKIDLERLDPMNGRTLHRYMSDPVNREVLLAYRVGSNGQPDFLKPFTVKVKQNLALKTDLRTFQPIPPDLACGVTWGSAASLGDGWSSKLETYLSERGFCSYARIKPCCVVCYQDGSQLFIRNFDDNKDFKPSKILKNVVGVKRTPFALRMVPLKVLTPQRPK
Experiment: cell_activity; HEK293T; PAM AAC
Conditions: tags: N-term SV40 NLS, XTEN linker + C-term nucleoplasmin NLS
Procedure: HEK293T cells were transfected with plasmids expressing the Nuclease H polypeptides and the gRNAs provided herein following the methods provided in Example 1 above. Gene editing efficiencies were determined by NGS following the methods also provided in Example 1. The NGS results were analyzed also following the methods provided in Example 1 above.
Each Nuclease H variant and RNA guide (see Table 16) was cloned as described in Example 9. HEK293T cells were further transfected, followed by NGS analysis, as described in Example 10. For each target, indel ratios, referring to the percentage of NGS reads comprising indels, were calculated for the reference Nuclease H (SEQ ID NO: 64) and for each Nuclease H variant. The indel ratios shown in Table 18 were calculated as the average of two bioreplicates, each of which contained two technical replicates.

B1: H AAVS1-T5 RNA guide ; AAVS1-T5 target (H) (ssRNA ; dsDNA)
RNA: GGCUAUAAUCCAUGCUGACCGUUUCAAUCAACCUGAUCUCUCUGCUUGCGCUGCAGGCUUCAUAAGAUCAGUAGGUUGAAAAGAGCAUCCGUCCGACAUGCACUCCGGGAUGGGGCAGUCCCGGCUCUUGCGGUUCCCGAUGCAGUUAUGUGUCCGCGGAACACGGUGUCGGACACGUCGCAAGACAGGAUGUGAGCCCAUUAUCCACAUUAGGAUCAAUGUACGCAUGAGCAGUCCGCAAUGCCGGGGACGCU
DNA 1: GGCTATAATCCATGCTGACC
DNA 2: GGTCAGCATGGATTATAGCC
For B1, the activity was 0.184 indel ratio.
